Assay results as given in publication PMC4571279 (2015).
Changes are numbered by the printed parent chain.

B1: IgG1 m336-gL (all light-chain somatic mutations reverted to germline) (antibody, V domains shown)
VH: QVQLVQSGAEVKKPGSSVKVSCKASGGTFSSYAISWVRQAPGQGLEWMGGIIPIFGTASYAQKFQGRVTITADKSTSTAYMELSSLRSEDTAVYYCARVGYCSSTSCNRGAFDIWGQGTMVTVSS
VL: DIQMTQSPSSLSASVGDRVTITCRASQGIRNDLGWYQQKPGKAPKRLIYAASSLQSGVPSRFSGSGSGTEFTLTISSLQPEDFATYYCLQHNSYPLTFGGGTKVEIK
B2: IgG1 m336-gL-FR (light-chain framework somatic mutations reverted to germline) (antibody, V domains shown)
VH: B1 VH
VL: B1 VL with L89Q, H91L
B3: IgG1 m336 (antibody, V domains shown)
VH: B1 VH
VL: B1 VL with M4L, R46L, E70D, L89Q, H91L
B4: IgG1 m336-gH (heavy-chain somatic mutation reverted to germline) (antibody, V domains shown)
VH: B1 VH with S59N
VL: B1 VL with M4L, R46L, E70D, L89Q, H91L

What follows are binders tested against recombinant MERS-CoV S1 protein (MERS-CoV) (assay: SPR).

Binder | Kd
B1 | 25.2 nM
B2 | 15.7 nM
B3 | 1.49 nM
B4 | 0.239 nM

Target: recombinant MERS-CoV S1 protein (MERS-CoV)
Experiment: SPR
Remark: another data set of the same source

Binder | koff
B1 | 0.000545 s⁻¹
B2 | 0.000769 s⁻¹
B3 | 0.000955 s⁻¹
B4 | 0.000329 s⁻¹
